Measurements: article PMC4755760, “The acidic domain of the endothelial membrane protein GPIHBP1 stabilizes lipoprotein lipase activity by preventing unfolding of its catalytic domain” (eLife, 2016)
Residue numbers refer to the chain shown, from its start. In names and notes the source's numbering stands. Values belong to the molecule of their own block, whether it stands above or below them.

Legend:
[1] = molecular target: bovine LPL homodimer (LPL2) (bovine) (UniProt P11151)
[2] = molecular target: bovine LPL homodimer (LPL2) (bovine) (UniProt P11151); assay: SPR; Biacore T200, CM4 chip; bovine LPL2 captured on immobilised mAb 5D2, GPIHBP1 as analyte (12.5-200 nM), single-cycle kinetic titration; 20°C; 10 mM HEPES (pH 7.4), 150 mM NaCl, 4 mM CaCl2, 0.05% P20, 0.2 mg/ml BSA; 1:1 model
[3] = molecular target: Alexa-647–labeled GPIHBP1^34–131/R38G (human) (UniProt Q8IV16); assay: MST; Monolith NT.115; 5 nM Alexa-647-labeled GPIHBP1, LPL2 titrated 10 pM to 350 nM; 10 mM HEPES (pH 7.4), 150 mM NaCl, 4 mM CaCl2, 0.05% P20, 1.0 mg/ml BSA; 22°C; 1:1 model
CTD^313–448 of human LPL = molecular target: T1, CTD^313–448 of human LPL (human, UniProt P06858 340-475); assay: SPR; Biacore T200, CM4 chip; LPL CTD captured on immobilised mAb 5D2 (~100–200 RU), GPIHBP1 as analyte 8 nM to 4 µM; 20°C; 10 mM HEPES, 150 mM NaCl, 3 mM EDTA (pH 7.4), 0.05% P20; single- and multi-cycle kinetics, global fit to a 1:1 model; settings: both partners purified
T1 construct: lipoprotein lipase (LPL), human, C-terminal domain, residues 313-448; numbers count on: the mature protein; the printed surface densities (85 RU ~ 5 fmols/mm^2) fit about 17 kDa, that is a CTD without the tag (surmise); also called LPL CTD; C-terminal domain of LPL; source: Drosophila S2 cells, secreted as RS-DIII-ent-CTD, purified (anti-uPAR mAb R24 column)
T1 sequence (looked up): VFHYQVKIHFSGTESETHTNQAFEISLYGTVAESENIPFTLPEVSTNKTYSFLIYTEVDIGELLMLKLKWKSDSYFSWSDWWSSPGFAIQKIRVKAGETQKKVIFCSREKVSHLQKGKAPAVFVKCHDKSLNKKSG

[4] = molecular target: T2, bovine LPL homodimer (LPL2) (bovine, UniProt P11151 29-478); assay: cell-based or functional assay
T2 sequence (looked up): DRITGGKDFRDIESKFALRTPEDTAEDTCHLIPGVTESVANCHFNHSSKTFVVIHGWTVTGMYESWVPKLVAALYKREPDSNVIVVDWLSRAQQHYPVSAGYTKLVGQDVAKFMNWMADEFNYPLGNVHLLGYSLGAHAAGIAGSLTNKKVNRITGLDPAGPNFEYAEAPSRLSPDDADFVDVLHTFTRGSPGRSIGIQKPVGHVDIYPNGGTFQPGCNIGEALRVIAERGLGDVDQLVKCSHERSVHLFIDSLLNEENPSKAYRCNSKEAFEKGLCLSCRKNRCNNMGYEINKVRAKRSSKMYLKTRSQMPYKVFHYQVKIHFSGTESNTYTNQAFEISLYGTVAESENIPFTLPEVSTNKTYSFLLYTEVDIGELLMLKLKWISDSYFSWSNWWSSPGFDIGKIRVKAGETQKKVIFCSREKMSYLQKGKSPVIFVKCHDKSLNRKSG

[5] = molecular target: T2, bovine LPL homodimer (LPL2); assay: SPR; Biacore T200, CM4 chip; bovine LPL2 captured on immobilised mAb 5D2, GPIHBP1 as analyte (12.5-200 nM), single-cycle kinetic titration; 20°C; 10 mM HEPES (pH 7.4), 150 mM NaCl, 4 mM CaCl2, 0.05% P20, 0.2 mg/ml BSA; 1:1 model; settings: both partners purified
[6] = molecular target: T2, bovine LPL homodimer (LPL2); assay: MST; Monolith NT.115; 5 nM Alexa-647-labeled GPIHBP1, LPL2 titrated 10 pM to 350 nM; 10 mM HEPES (pH 7.4), 150 mM NaCl, 4 mM CaCl2, 0.05% P20, 1.0 mg/ml BSA; 22°C; 1:1 model; settings: both partners purified

Loss of esterase activity (%) of LPL after 45 min at 25°C, peptide in 5-fold molar excess; relative to LPL without ligand (100%) [1]: 9.8%
Loss of triolein hydrolase activity (%) of LPL after 45 min at 25°C, peptide in 5-fold molar excess; relative to LPL without ligand (100%) [1]: 4.2%
Unfolding of NTD in LPL (%) after 45 min at 25°C, by pulse-labeling HDX-MS, equimolar ligand; relative to LPL without ligand (100%) [1]: 43%
Molecule: GPIHBP1^1–33 (peptide)

Loss of esterase activity (%) of LPL after 45 min at 25°C; relative to LPL without ligand (100%) [1]: 34.7%
Loss of triolein hydrolase activity (%) of LPL after 45 min at 25°C; relative to LPL without ligand (100%) [1]: 51.5%
Unfolding of NTD in LPL (%) after 45 min at 25°C, by pulse-labeling HDX-MS, equimolar ligand; relative to LPL without ligand (100%) [1]: 79.2%
Kd [2]: 91 nM
koff [2]: 0.019 s⁻¹
kon [2]: 190000 M⁻¹ s⁻¹
Molecule: GPIHBP1^34–131/R38G (from UniProt Q8IV16 54-151) (domain or fragment)

Kd [3]: 147 nM
Molecule: bovine LPL homodimer (LPL2) (from UniProt P11151 29-478) (enzyme)

Kd (CTD^313–448 of human LPL): 1410 ± 760 nM
koff (CTD^313–448 of human LPL): 0.1 ± 0.01 s⁻¹
kon (CTD^313–448 of human LPL): 100000 M⁻¹ s⁻¹
B1: GPIHBP1^34–131/R38G (domain or fragment, human, UniProt Q8IV16 54-151, looked up)
chain: LPGGGSRVLLRCYTCKSLPRDERCNLTQNCSHGQTCTTLIAHGNTESGLLTTHSTWCTDSCQPITKTVEGTQVTMTCCQSSLCNVPPWQSSRVQDPTG
notes: numbers count on: the mature protein; Monomeric by SEC; also called truncated GPIHBP1 lacking the acidic domain; isolated LU domain; source: Drosophila S2 cells; not shown: uPAR domain III (DIII), N-terminal, cleaved

Loss of esterase activity (%) of LPL after 45 min at 25°C; relative to LPL without ligand (100%) [4]: 11.4%
Loss of triolein hydrolase activity (%) of LPL after 45 min at 25°C; relative to LPL without ligand (100%) [4]: 28.7%
Unfolding of NTD in LPL (%) after 45 min at 25°C, by pulse-labeling HDX-MS, equimolar ligand; relative to LPL without ligand (100%) [4]: 32.6%
Kd [5]: 25 ± 7 nM
koff [5]: 0.023 ± 0.006 s⁻¹
kon [5]: 990000 M⁻¹ s⁻¹
Kd (CTD^313–448 of human LPL): 120 ± 40 nM
koff (CTD^313–448 of human LPL): 0.12 ± 0.04 s⁻¹
kon (CTD^313–448 of human LPL): 1.04e+06 M⁻¹ s⁻¹
B2: GPIHBP1^1–131/R38G (domain or fragment, human, UniProt Q8IV16 21-151, looked up)
chain: QTQQEEEEEDEDHGPDDYDEEDEDEVEEEETNRLPGGGSRVLLRCYTCKSLPRDERCNLTQNCSHGQTCTTLIAHGNTESGLLTTHSTWCTDSCQPITKTVEGTQVTMTCCQSSLCNVPPWQSSRVQDPTG
notes: numbers count on: the mature protein; Monomeric by SEC; Carries a single N-linked glycan; also called soluble human GPIHBP1; not shown: uPAR domain III (DIII), N-terminal, cleaved

Kd (CTD^313–448 of human LPL): 150 nM
koff (CTD^313–448 of human LPL): 0.16 s⁻¹
kon (CTD^313–448 of human LPL): 1.06e+06 M⁻¹ s⁻¹
B3: GPIHBP1^1–131/R38G N-gly (domain or fragment, human, UniProt Q8IV16 21-151, looked up)
chain: B2 chain
modifications: the single N-linked glycan removed with N-glycanase
notes: numbers count on: the mature protein; As m1 after removal of the N-glycan; source: Drosophila S2 cells, purified, then incubated overnight at 37°C with N-glycanase under native conditions; not shown: uPAR domain III (DIII), N-terminal, cleaved

Kd [6]: 5.7 nM
B4: Alexa-647–labeled GPIHBP1^1–131/R38G (domain or fragment, human, UniProt Q8IV16 21-151, looked up)
chain: B2 chain
modifications: Alexa Flour-647 (NHS ester), average 1.3 flurophore/protein; conditions favor modification of the N-terminal α-amino group
notes: numbers count on: the mature protein; m1 with a fluorophore; source: Drosophila S2 cells, purified, labeled with Alexa Flour-647 NHS ester, desalted (PD-10); not shown: uPAR domain III (DIII), N-terminal, cleaved

Kd [5]: 38 ± 29 nM
koff [5]: 0.02 ± 0.007 s⁻¹
kon [5]: 650000 M⁻¹ s⁻¹
Kd (CTD^313–448 of human LPL): 290 ± 130 nM
koff (CTD^313–448 of human LPL): 0.22 ± 0.07 s⁻¹
kon (CTD^313–448 of human LPL): 1.12e+06 M⁻¹ s⁻¹
B5: GPIHBP1^1–131 (domain or fragment, human, UniProt Q8IV16 21-151, looked up)
chain: B2 chain with G38R
notes: numbers count on: the mature protein; not shown: uPAR domain III (DIII), N-terminal, cleaved
